A protein production outcome set (Wang et al. 2014)
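Further: failed if final PepcDB status was selected cloned or expressed and not failed if soluble or beyond.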

Test: label from the status in PepcDB records
For “MGHHHHHHSHSWDFGAFQSSSATDSSMEEIFQHLMAYHQEASKRISSHIPLIIQFFMLQTYGQQLQKAMLQLLQDKDTYSWLLKERSDTSDKRKFLKERLARLTQARRRLAQFPG”, the protein production was “failed”.
With “MGHNAINRLQLVATLAEREVMRYTPAGVPIVNCLLSYSGQAMEAQAARQVEFSIEALGAGKMASVLDRIAPGTVLECVGFLARKHRSSKALVFHISGCNVFVKDLEHHHHHH” the protein production was “not failed”.
For “MGHQSSWMKQTVIDSVVQSSKVGVFSMFSMDYKAPRKYSHGRNFGVARQQDFAADIVTRRPYAPYDNGMKKGPNKLSRNLVWTSKEYKSPEGNRPRQNAANGSAKPQVIGTGHRVSNQPRKNAVYGPRSSSLSDTRGCGPRLNGSPKKSVCNFWKDGNCKKGEKCQFLHSWSCFPGLAMVAALEGHKNDIKGIALPQGSDKLFSVSGDGTLLIWDCNSGQCVRSINLQAEAGSLISEGPWVFLGLPNAVKAFNVQNSKDVHLEGVVGQVHAMTAANGMLFAGTSSGSILVWKATDSESDPFKYLTSLEGHHSGEVTCFVVGGEVLYSGSVDKTIKVWDLNTLQCRMTLKQHIGTVTSLLCWDKCLISSSLDGTIKLWACSENESLKVVQTRKQELSVHTLCGMHDAEAKPIMFCSYQNGAVGIFDLPSFEERGKMFSTQTICTLTIGPGGLLFSGDKSGNLRVWSLASGTKV”, the protein production was “failed”.
For “MGIDELYKKEFGIVAGVDEAGRGCLAGPVVAAAVVLEKEIEGINDSKQLSPAKRERLLDEIMEKAAVGIGIASPEEIDLYNIFNATKLAMNRALENLSVKPSFVLVDGKGIELSVPGTCLVKGDQKSKLIGAASIVAKVFRDRLMSEFHRMYPQFSFHKHKGYATKEHLNEIRKNGVLPIHRLSFEPVLELLTDDLLREFFEKGLISENRFERILNLLGARKSVVFRKERTNHNLPLF”, the protein production was “not failed”.
For “MGIELVMENAHWFWLSLGGLLLAAEMLGGSGYLLWSGLSAVLVGLLTWIMPLGWPWQGTIFAILTIVTALLWWYWLRKRTLSRPPSTLNQRGQQLVGLRATVSESVTNGFGRVNIGDSSWRVKSEQDLPAGTHVEVIAVDGITLHVRSIER”, the protein production was “failed”.
With “MGIHQYFQSLSDLENIYRCPGKFKYQEHSVAEHSYKVTSIAQFFGAVEEDAGNEVNWRALYEKALNHDYSELFIGDIKTPVKYATTELREMLSEVEESMTKNFISREIPATFQPIYRHLLKEGKDSTLEGKILAISDKVDLLYESFGEIQKGNPENIFVEIYSEALATIYEYREMASVKYFLKEILPDMLAEKGIEKTELPQLTTEITTKALRDE” the protein production was “not failed”.
For “MGIIDRRRRRAVLVVAVVAAVLIFVADALSPIDGAVAVLYTGVVLMVAPLGRKFIVVAGYISAVLALTAFLWGHASDLVGGALLRLVVSLVAILITVLLSMRDRSARISLAEQVRILEASHDTVIIRDSAGIVRYWNEGAERLYGRSRDQAIGRHYAELFDESAPVDEIDRSMREAGSWSGEVVRTRRDGARLILASRWLQRRDPEGRAIGVIEASADLTESRRAQAEQRRSERRYSTIFNSAGFAALECDLSDALSLVLSAGADVAASLRADPALLAAAVERIVICEANPAALEMFDADGPGELIVAELLAFSIPDARQALETIFVALTTGSTQIETETRFITRRGRTIDAVLRLSVLPDGTDWSRVLLMAVDVTERNEARTKIERISAELAHAGRVSVLGQLAASIAHEVNQPLAAIINYGKSGKRWLVRPTSDIGEVAECLDKIVSNANRAAEVVGRVRFLARKSAPLTDSVDLVVMLQDAIELLRREIHSVKATVRVELSTPIAMIDCDRVQVQQVFVNLLMNALQAMRGIDGHRQILVRIEDSGDSLTVAVCDTGVGIAGDPARIFEPFFSTKSDGMGLGLSICRTIIEGQGGQILASNNDGPGATVAFTLLRNNPDEGRHNRRLIS”, the protein production was “failed”.
In the case of “MGIMELARIDLSRDDLDKRIGGGIPHGSLIIIEGEESTGKSVLCQRLAYGFLQNRYSVTYVSTQLTTLEFIKQMNSLNYSINKKLLSGALLYIPVYPLIADNKKKDGFLKKVMETRAFYEKDVIIFDSISALIANDASEVNVDDLMAFFKRITALKKIIICTVNPKELPESVLTIIRTSATMLIRTELFTFGGDLKNLAKILKYNMAPGSYQKNIVFRVEPKIGIAVEIASVALEHHHHHH”, the protein production is reported as “not failed”.
For “MGKDAKAGGKGKGKQASGSEEAPSKGKGKAGKAADGLGTCTYVKARHVLCEKQGKINEAYKKLQDGWLSNGDKVPPAEFAKIAAEYSECPSGKKGGDLGWFPRGKMAGPFQDVAFNTPVGVTSAPFKSTHGYHIILSEGRKN”, the protein production was “failed”.
In the case of “MGKFLIPIEFVFLAIAMTCYLWHRQNQERRRIEISIKQQTQRERFINQITQHIRQSLNLETVLNTTVAEVKTLLQVDRVLIYRIWQDGTGSAITESVNANYPSILGRTFSDEVFPVEYHQAYTKGKVRAINDIDQDDIEICLADFVKQFGVKSKLVVPILQHNRASSLDNESEFPYLWGLLITHQCAFTRPWQPWEVELMKQLANQVAIAIQQSELYEQLQQLNKDLENRVEKRTQQLAATNQSLRMEISERQKTEAALRHTNHTLQSLIAASPRGIFTLNLADQIQIWNPTAERIFGWTETEIIAHPELLTSNILLEDYQQFKQKVLSGMVSPSLELKCQKKDGSWIEIVLSAAPLLDSEENIAGLVAVVADITEQKRQAEQIRLLQSVVVNTNDAVVITEAEPIDDPGPRILYVNEAFTKITGYTAEEMLGKTPRVLQGPKTSRTELDRVRQAISQWQSVTVEAEVLNDSYKEKKSPLK”, the protein production is reported as “failed”.
In the case of “MGKINTDPAATSGIKVLDRAVSIMLAVAERPLSLTELCDVTNLPRATAHRLATALETHNILTRTSDGKWTIGAVLSSLGA”, the protein production is reported as “failed”.
With “MGKKIITISREYGSGGRQVGLTVAKKLGMEFYDKELIDAAAKEIGFPTEMIADREQRLTNSLLYNFAMGTLYGIAYPREPKVSELPLTEQIYQAQKKAIEEAAKRGSCIFVGRCADYILKSRPDVLRVFIYADRDIRKRRAIEEYGEIEEYIDEFMYQTDKRRRIHYENYTNQKWGSRENYDLMLNSGDLGLDKCVELLCEAVK” the protein production was “not failed”.
For “MGKPVTNEAKGVYVMSVLPNMPAAGRLEAGDRIAAIDGQPINTSEQIVSYVREKQAGDRVRVTFIRDRKQHEAELVLKPFPHHPNQIGLGVTLRTLEHHHHHH”, the protein production was “not failed”.
In the case of “MGKTKRYWLLKTEPNEWSWSDQESNGGISKWDGVKNKQAQKNLKSMTLGDLCFFYHSGTKSRCVVGVVEVSREWYTDDAEGVEGEGAVDVKAIGEMRKCVDLKEMKGDKGIITKGFVLFRQPRLSVVPVEEDVWNMICELGNGFCGDGKEDCESSDDE”, the protein production is reported as “failed”.
With “MGKVSSLKLKTNRRCIYITTIKEITEAIKADPDNAEYTAKGWDPLFHVLPTATILVISQAPGRIAQNTKTYFNDASGDRLRDWMGVTREQFYQSDRIAVMPLDFYYPGKGKSGDLPPRKGFMDKWHEPLLAMMPNVQLTLLVGQYAIKAYLGRSRQKTLTATVQNYQDYLPDYFPLVHPSPLNYGWQKKNPWFQATVVPDLQRRVQIALK” the protein production was “failed”.
For “MGKVTIIAGGIKTESRLNGLIQLAANQLANNGTEVKIIEVHKIQAEALVTADFTHPDIHLANSEIESSSGVIIATPIFKAAYSGVLKAYLDLLPLKALKGKVVLPLGLGGSNGHLLALQYALDPVLKELGAEIILKGQFTVDKQIERLGNGLYEIEITAKERLDSALNQFISLLNQNSVEVLEHHHHHH”, the protein production was “not failed”.
With “MGKVYRTSQMAASILVNAIYAMKNFPITLVNTLLSPLSFLLVITLASHGRLLSVSVGGALIMSMISSGIGLQGDLSHLKNDFKLQDMVVSSPTTASVYLIGMAISEIVYSIPALAVLGVHASIYIHTTVVGVFQIVAVMVLMFSFSILLGFTLATITYDIIQSWAFSGIISTLISTIPPVYYPITYIPMPFRYAAYASPTTYGAELVQSAIGFVHLSGASFIVDWVILIMINVVFFIIALKKARWREI” the protein production was “failed”.
In the case of “MGLDDLVGQWLLPGMALAAVGVFFCIKGYLLRRQMARDALTDALTVGELRRRVHALVLGKRQRVYSGAMFLVEVVHHPELSAMLGLEDNKLLLAMIAQRLQMQSDYFQVARHSSDSFMVWAPDLDPRSARDVAPEVLDALSQPYELRGQPLIVGFRLSGALYAQHGACFDELERSLHIAMLHLDESAGAAWNMFEPSMLEHQRHYQGLEHDLRVALVSSSMDQFEVCYQPVCDSVTGTIYGCEALLRWHHPVHGDVSPALVIELAERTGLIVPLGAWVLETACSRAITWPAAWRLHVNVSVRQMYADELPAQVALALAASRLSAQRLVLEITESLFIQQYERHVATLNGMRAKGVRVALDDFGAGYSSLTHLRRLPIDWVKLDRGFVAEIEFDAVSREVVSALMGMCRALGLAVVAEGVETPAQREILKALGCREMQGFLLGRPVSAERIRELGAAVS”, the protein production is reported as “failed”.
For “MGLFELNLAIILFIIGNFIGLEYSYRKYSSPYVEKGIDKFALAISVFGGILINSPLYMLGCLLIGFPLGMRPGYGRVEFVVGLAVALFLYFLRW”, the protein production was “failed”.
With “MGLKNIVVFVEPSNAGATRARYAVELARRHGAHLIGIFVASSDGPIPANAYVRGRDAMRRLIELHDANAIETTSVASRNFNTATNSADITYEFRIIREIESDDTKLHCLHADLVIVGHPRPGGLPLYSSAEGLLLATGIPFLIVPDGWPSGAVAQRVLLAWNASREARRAITDSLPLLSAAQSVSIVVIDSAKNRLHGENPGADVAVYLSRHGAHVTTEQIDSNGSPIADVILQHAVHGGFDLIVLGAYSHARVREAVFGGVTRSLLKLATIPMLIAH” the protein production was “failed”.
For “MGLNIKPLVVSVLGSVLLAGCATAPPKQQDNLCEIFREKSGWYDDAKYMEKEWGTPIHVAMAIIKQESSFRHDAKPPKDYVLGFIPWGRVSSAYGYAQAQDPAWDDFQDSTGQGGSRSNFDDSIMFVGWYTHETRRQLGISLWDPYNQYLAYHEGRGGYKRGTYKRKPSLMKVARRVEQTAKTYGWQLKQCRQELEDNSSWFF”, the protein production was “failed”.
For “MGLSHKFQVKQFVEISPYSQSRLRHEQPQTPIHSDITTYHCHRGQFDIVAGGLPCQGTSNAGNRQGLDDPRSALWAEQFRIIESDRPAIALIENPTGLLYRGLEQIICDLDSIGYMGEWNCISAQQVGLPHQRKRIFIIAYSNGLFNQVVPAPWSNQIGNHITQVRLSLETRSYQPGISKVASRIPIGVAKNIPGNYDARRAYGLSCSPRQAAVAWKRIDYLCSLLEHHHHHH”, the protein production was “failed”.
For “MGLVTDEVRARAEKYTGDEICREKTKEFLKEVSMPNGLLPLKDIEEVGYDRETGIVWLKQKKSITHKFEAIGKLVSYATEVIAQVEVGKIKKLTGVKAKELLIWVTLNELVLEQPTSSGKINFRTPTGLSRTFPVSAFVVPEVEKPATEKNNGTTEVKEAVAVTDA”, the protein production was “failed”.
For “MGLVVSARSVSPLKKWPSRVRSFSINMGQPKSGQGWKLGACCPANRHNRERTRSCAPAGLTCLRPAPAPWACLGLDLCPSLGLDLGPSLGLALRSGPAEETMDPAGRARGQGATAGGLLLRAAAAAKGLREDLWGAAALPWRSLSRIPKREGLGEEDTAVAGHELRESRDEVSENQAAGRAGSKGLEKVPRAAPPDAAGGKLARRLSPGTPSPSLHRCTPLLPNERSFQNAAKSNNLDLMEKLFEKKVNINVVNNMNRTALHFAVGRNHLSAVDFLLKHKARVDVADKHGLTVIHLAAWSGSLEVMLMLVKAGADQRAKNQDGMSALHFATQSNHVRIVEYLIQDLHLKDLNQPDEKGRKPFLLAAERGHVEMIEKLTFLNLHTSEKDKIQWSTLWTAALTKMKTSRNSIAALTIEGACSPGTGVSTSSVSLLQGGNTALHLAAKHGHSPAVQVLLAQWQDINEMNELNISSLQIATRNGHASLVNFLLSENVDLHQKVEPKESPLHLVVINNHITVVNSLLSAQHDIDILNQKQQTPLHVAADRGNVELVETLLKAGCDLKAVDKQGKTALAVASRSNHSLVVGMLIKAERYYAWREEHHESIRDPSTGFTLTFKQDHSLETRHIRTLLWDLAYHQLKANEWQRLARSWNFTDDQIRAIEEQWSDENLGNIESLLGINQLISFENNEANMFLGKVFYSEHCPLMDILRREGVLAQGSICIRDCWELGMAEAQSMSTHYLYHIQEAVYRNIILTSYSPSVVLAVAHTEYGTMEGACKLSAASPLGNDPVNTGYSLAWQFCVIPLLSI”, the protein production was “failed”.
